From patent US20240343803A1 (SHANDONG SIMCERE BIOPHARMACEUTICAL, published 2024)
Where “and” joins values, the source holds several entries; their conditions need not be identical. Equal entries are not always repeated. Where two headings read alike, the source gives them in different places.

T1: cynomolgus monkey PVRIG (Novoprotein, Cat NO. C09B) (cynomolgus monkey, UniProt A0A2K5WVV8 41-171)
T1 construct: bought reagent; also called cynomolgus monkey PVRIG recombinant protein
T1 sequence: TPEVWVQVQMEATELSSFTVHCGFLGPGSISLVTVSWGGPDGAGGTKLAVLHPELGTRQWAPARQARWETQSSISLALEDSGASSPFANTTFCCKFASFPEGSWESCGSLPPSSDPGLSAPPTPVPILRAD

T2: human PVRIG-mFc protein (Acro, PVG-H5253) (human, UniProt Q6DKI7 41-171, limits assumed)
T2 construct: bought reagent; also called PVRIG-ECD-mFc
T2 sequence (looked up): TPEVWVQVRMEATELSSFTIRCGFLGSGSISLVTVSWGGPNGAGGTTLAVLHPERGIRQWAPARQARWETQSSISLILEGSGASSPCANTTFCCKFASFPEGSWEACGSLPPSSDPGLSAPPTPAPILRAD

T3: human PVRIG-his (AcroBiosystems, Cat NO. PVG-H52H4) (human, UniProt Q6DKI7 41-171, limits assumed)
T3 construct: treated as the same protein; also called human PVRIG-His protein; Human PVRIG-His, Acro C227P1-9ARF1-T4
T3 sequence (looked up): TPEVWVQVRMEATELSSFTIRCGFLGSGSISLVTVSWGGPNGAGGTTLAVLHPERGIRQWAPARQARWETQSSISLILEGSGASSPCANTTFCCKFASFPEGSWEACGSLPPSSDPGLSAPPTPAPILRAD

T4: human PVRIG on FlpinCHO-PVRIG cells (human, UniProt Q6DKI7 41-326)
T4 construct: whole, on cells; also called FlpinCHO-hPVRIG; FlpinCHO-human PVRIG
T4 sequence (looked up): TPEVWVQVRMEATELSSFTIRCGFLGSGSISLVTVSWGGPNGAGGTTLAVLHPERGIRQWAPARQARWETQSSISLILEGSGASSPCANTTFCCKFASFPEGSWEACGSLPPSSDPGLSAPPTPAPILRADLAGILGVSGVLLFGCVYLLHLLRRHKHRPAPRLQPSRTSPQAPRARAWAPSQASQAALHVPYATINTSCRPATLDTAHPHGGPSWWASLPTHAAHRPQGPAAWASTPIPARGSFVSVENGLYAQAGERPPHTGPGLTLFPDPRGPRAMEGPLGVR

B1: COM701-hIgG4 (antibody, V domains shown)
VH: QVQLVQSGAEVKKPGASVKVSCKASGYTFTDYNINWVRQAPGQGLEWMGYIYPYIGGSGYAQKFQGRVTMTRDTSTSTVYMELSSLRSEDTAVYYCAREDKTARNAMDYWGQGTLVTVSS
VL: DIQMTQSPSSLSASVGDRVTITCRVSENIYSNLAWYQQKPGKAPKLLIYEATNLAEGVPSRFSGSGSGTDFTLTISSLQPEDFATYYCQHFWGTPYTFGQGTKLEIK
notes: anti-PVRIG positive control
B2: PVRIG-A50 (VHH)
VHH: EVQLVESGGGLVQPGGSLRLSCAASGFTFSYYDMSWVRQAPGKGLEWVSTINSNGGRTSYVDSVKGRFTISRDNTKNTLYLQMNSLKPEDTAVYYCVEGDPHNFGLENLSLRDFGSWGQGTQVTVSS
notes: tested as VHH-hinge-CH2-CH3 (human IgG1-Fc); not shown: human IgG1 hinge-CH2-CH3
B3: PVRIG-A50-H1b (VHH)
VHH: EVQLVESGGGLVQPGGSLRLSCAASGFTFSYYDMSWVRQAPGKGLEWVSTINSDGGRTSYVDSVKGRFTISRDNSKNTLYLQMNSLRAEDTAVYYCVEGDPHNFGLESLSLRDFGSWGQGTMVTVSS
notes: humanized VHH; also called A50.VH1b
B4: PVRIG-A118 (VHH)
VHH: QVQLVESGGGLVQAGGSLRLSCAASETYFDLYVMGWYRQAPGKDRELVATITYTGSIKIVDSVKDRFTISRGDAKNTVSLQMSSLKPEDTAVYFCNADPSGLGRKVYWGQGTQVTVSS
notes: as for B2

What was measured:
[1] = biological target: T1, cynomolgus monkey PVRIG (Novoprotein, …); assay: ELISA, coated cynomolgus monkey PVRIG
Experimental: (§1) The ELISA plate was pre-coated with 100 μL/well of 0.5 μg/mL human PVRIG-his (AcroBiosystems, Cat NO. PVG-H52H4) or cynomolgus monkey PVRIG (Novoprotein, Cat NO. C09B). […] A HRP substrate, TMB (Thermo, Cat NO. 34029) was added into wells after washing the plate again for color development. After adding a termination solution to terminate the reaction, the absorbance value was read by a microplate reader (MD i3×). An antibody binding curve was drawn with concentration of antibodies as the abscissa and the corresponding OD value as the ordinate. The EC50 value was calculated by using a Four Parameter Logistic Fit (GraphPadPrism9). The smaller the EC50 value, the stronger the ability of the antibodies binds to human or cynomolgus monkey PVRIG. The positive control antibodies are COM701-hIgG1 (Patent No.:US20180244774A1), COM701-hIgG4 (patent No.: US20180244774A1) and SRF813-hIgG1 (Patent No.:US20200040081A1); and the negative control antibodies are anti-HA HcAb-hIgG1 (Chengdu NB Biolab, Cat NO. NBR022), anti-CD38 HcAb-hIgG1 (in-house) and anti-Fluorescein-hIgG1 (in house).

[2] = biological target: T2, human PVRIG-mFc protein (Acro, …); assay: competition FACS; blocked: human PVRIG-mFc binding to CHO-K1-CD112 cells
Summary of the method: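 CHO-K1-CD112 cells stained with Zombie violet were added to the mixture for another 30 min at 4° C, and bound PVRIG-mFc was detected with PE goat anti-mouse IgG Fc (1:250) as mean fluorescence intensity on a BD Canto II. IC50 values were read off the resulting competition curve.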

[3] = biological target: T3, human PVRIG-his (AcroBiosystems, Cat …); assay: competition ELISA on coated human PVRIG-his; blocked ligand human PVRL2-mFc
Summary of the method: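 Wells were coated with 0.5 μg/mL human PVRIG-his. Bound ligand was read by HRP/TMB absorbance, and IC50 came from a four-parameter logistic fit of OD against antibody concentration.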

[4] = biological target: T2, human PVRIG-mFc protein (Acro, …); assay: competition FACS; blocked: PVRIG-mFc binding to CHO-K1 CD112 cells
Experimental: The Ham's F12 (Gibico, 21127-022) complete medium containing 10% FBS was then added to stop the digestion and acquire cell suspension. After counting with a cell counter (Beckman Coulter, Vi-CELL), an appropriate amount of cell suspension was centrifuged at 350×g to remove the supernatant, washed twice with PBS, stained with Zombie violet (Biolegend, 423114) and incubated at room temperature for 20 minutes. After incubation, the cells were added with staining buffer (2% FBS+PBS) to stop staining, centrifuged at 350×g to remove the supernatant, washed twice and resuspended with staining buffer to a density of 2×10⁶ cells/mL. The cells were plated into a 96-well plate (50 μL of cell suspension per well) for further use. A working solution of human PVRIG-mFc protein (Acro, PVG-H5253) prepared with staining buffer, 1 μg/mL (four-fold concentration), was added into a 96-well plate (50 μL PVRIG-mFc working solution per well). […] The diluted antibodies were added to the well containing 50 μL of PVRIG-mFc. The plate was placed on a microplate shaker at 400 rpm for 1 minute to fully mix the antibodies and PVRIG-mFc proteins, and then incubated at 4° C. for 30 minutes. After the incubation, the cell suspension prepared above (100 μL) was added into the wells, gently mixed with the pipette tip and incubated at 4° C. for 30 minutes. After the incubation, the cells were washed twice with staining buffer (200 μL per well) and centrifuged at 350×g for 5 minutes to discard the supernatant. The PE goat anti-mouse IgG Fc antibody (Biolegend, 405337) was diluted 250 times with staining buffer, added into the washed wells (100 μL per well), mixed well, and stained at 4° C. for 30 minutes. After staining, the cells were washed twice with staining buffer, finally resuspended with 200 μL staining buffer and analyzed by flow cytometry (BD, Canto II). The weaker the fluorescence signal, the stronger the ability of the antibodies blocks the binding of CHO-K1 human CD112 cells to the PVRIG-mFc protein.

[5] = biological target: T2, human PVRIG-mFc protein (Acro, …); assay: competition FACS; blocked: human PVRIG-mFc binding to CHO-K1-CD112 cells; remark: listed apart in the source
Summary of the method: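 Antibody dilutions premixed with human PVRIG-mFc (working solution 1 μg/mL, four-fold concentration) for 30 min at 4° C, then incubated with CHO-K1-CD112 cells 30 min at 4° C. Bound PVRIG-mFc detected by PE anti-mouse IgG Fc flow cytometry; IC50 and AUC from four-parameter fit of MFI versus antibody concentration.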

[6] = biological target: T3, human PVRIG-his (AcroBiosystems, Cat …); assay: ELISA, coated human PVRIG-his
Experimental: as §1

[7] = biological target: T4, human PVRIG on FlpinCHO-PVRIG cells; assay: FACS, FlpinCHO-PVRIG cells
Experimental: After discarding the cell culture medium, the cells were rinsed with PBS and digested for 8-10 minutes by adding 1 mL Versene (Gibico, 15040-066). The Ham's F12 (Gibico, 21127-022) complete medium containing 10% FBS was then added to terminate the digestion and acquire cell suspension. After counting with a cell counter (Beckman Coulter, Vi-CELL), an appropriate amount of cell suspension was centrifuged at 350×g to remove the supernatant, washed twice with PBS, stained with Zombie violet (Biolegend, 423114) and incubated at room temperature for 20 minutes. After incubation, the cells were added with staining buffer (2% FBS+PBS) to stop staining, centrifuged at 350×g to remove the supernatant, washed twice and resuspended with staining buffer to a density of 2×10⁶ cells/mL. The cells were plated into a 96-well plate (50 μL of cell suspension per well) for further use. The antibodies were diluted from the highest concentration of 46 nM (two-fold concentration) with staining buffer by 3.3-fold serial dilution. The diluted antibodies were added to the well containing 50 μL of cell suspension. The plate was placed on a microplate shaker at 400 rpm for 1 minute to fully mix the antibodies and cells, and then incubated at 4° C. for 30 minutes. After the incubation, the cells were washed twice with staining buffer (200 μL per well) and centrifuged at 350×g for 5 minutes to discard the supernatant. The PE goat anti-human IgG Fc antibody (ebioscience, 12-4998-82) was diluted 250 times with staining buffer, added into the washed wells (100 μL per well), mixed well, and stained at 4° C. for 30 minutes. After staining, the cells were washed twice with staining buffer, finally resuspended with 200 μL staining buffer and analyzed by flow cytometry (BD, Canto II). The stronger the signal, the stronger the ability of the antibodies binds to PVRIG. An antibody binding curve was drawn with concentration of antibodies as the abscissa and the corresponding Mean Fluorescence Intensity (MFI) as the ordinate. The AUC value of the curve was calculated by using a Four Parameter Logistic Fit (GraphPadPrism9).

[8] = biological target: T3, human PVRIG-his (AcroBiosystems, Cat …); assay: competition ELISA on coated human PVRIG-his; blocked ligand human PVRL2-mFc; remark: listed apart in the source
Experimental: The ELISA plate was pre-coated with 100 μL/well of 0.5 μg/mL human PVRIG-his protein (AcroBiosystems, Cat NO. PVG-H52H4). The tested anti-PVRIG antibodies were diluted from the highest concentration of 16 nM (two-fold concentration). The diluted antibodies were mixed with 18 ng/ml human PVRL2-mFc (AcroBiosystems, Cat NO. CD2-H5257) in equal volume, added into the plate (100 μL/well), and incubated with shaking at room temperature for 2.0 hours. […] A HRP substrate, TMB (Thermo, Cat NO. 34029) was added into wells after washing the plate again for color development. After adding a termination solution to terminate the reaction, the absorbance value was read by a microplate reader (MD i3×). An inhibiting curve was drawn with concentration of antibodies as the abscissa and the corresponding OD value as the ordinate. The IC50 value was calculated by using a Four Parameter Logistic Fit (GraphPadPrism9). The smaller the IC50 value, the stronger the ability of the antibodies inhibits the binding between PVRIG and PVRL2. The positive and negative controls are the same as in Example 8.
The methods refer to Example 11. The inhibiting activity of the humanized antibodies was normalized to the corresponding parental antibodies. If the percentage value is higher than 100%, the inhibiting effect of humanized antibodies is better than that of parental antibodies.

Binder	EC50 (read off the curve) [1] [pM]	IC50 (read off the curve) [2] [pM]	IC50 (read off the curve) [3] [pM]	IC50 (read off the curve) [4] [pM]	IC50 (read off the curve) [5] [pM]	EC50 (read off the curve) [6] [pM]	EC50 (read off the curve) [7] [pM]	IC50 (read off the curve) [8]
B1	~100	~900	~800	~700	~800	~300		
B2			~2000		~700		~700	~800 pM and ~1000 pM
B3				~1000				
B4			~600		~1000		~200	~600 pM
